Measured values taken from patent publication US20180066017A1, “CLASS I MHC PHOSPHOPEPTIDES FOR CANCER IMMUNOTHERAPY AND DIAGNOSIS” (Agenus Inc., priority 2010, published 2018).
Square brackets hold non-standard residues; d marks the D form. Ends that are not written are not given here. pS = N[C@@H](COP(=O)(O)O)C(=O)O

Tests used:
[1] = test system: cancer cell lines COV413.AAD.A4, DM331.AAD.A4, SLM2.AAD.A1, MCF7.AAD.A2, MDAMB231.AAD; JY EBV-BLCL control; test: Recognition of naturally processed and presented phosphopeptides on cancer cells by phosphopeptide-specific CTL (murine IFNγ release); assay type: cell-based; conditions: FIG. 1A/1B; for recognition of the phosphopeptide on control cell line by phosphopeptide-specific CTL (murine IFNγ): JY EBV-BLCL control cell line; for recognition of the phosphopeptide on cancer cell lines by phosphopeptide-specific CTL (murine IFNγ): ovarian carcinoma, melanoma and breast carcinoma cell lines
Method: FIGS. 1A and 1B are a graphic illustration of the recognition of naturally processed and presented phosphorylated peptides on cancer cells by the phosphopeptide-specific CTL. Phosphopeptide-specific CTL were incubated with the following cancer cell lines or EBV-transformed B lymphoblastoid cell lines (BLCL): COV413.AAD.A4 ovarian carcinoma, DM331.AAD.A4 and SLM2.AAD.A1 melanomas, MCF7.AAD.A2 and MDAMB231.AAD breast carcinomas, and JY EBV-BLCL. Supernatants were harvested and evaluated for the presence of murine IFNγ (produced by murine CTL lines). […] The designation “pS” denotes a phosphoserine residue. The ordinate indicates murine IFNγ in pg/ml. The abscissa indicates each cell line.

HLA A*0201 = HLA A*0201 (Homo sapiens, UniProt P04439, D140Y/D185E/D98H/E176V/E277Q/G131W/G231S/I119V/I121R/I166T/I218V/L300P/L318F/N151K/N90K/P208A/P217A/Q86G/Q94H/R138H/R169H/T345S); test: Binding of IRS-2 phosphopeptides to HLA A*0201
Text: (§1) We have also shown that we can clone the T-cell receptor on the murine cytotoxic T-cells and then inject the corresponding DNA into normal human T-cells. This process turns them into cytotoxic T-cells that now recognize cancer cells that express the same class I phosphopeptides derived from IRS-2 and β-catenin. […] These experiments also open the door for using class I phosphopeptides in adopted T-cell therapy of cancer. This approach has shown dramatic success in the treatment of advanced stage metastatic melanoma. […] RVApSPTSGV (SEQ ID NO: 1289) binds to HLA A*0201 and both RVApSPTSGVK (SEQ ID NO: 53) and RVApSPTSGVKR (SEQ ID NO: 54) bind to HLA A*0301.

HLA A*0301 = HLA A*0301 (Homo sapiens, UniProt P04439); test: Binding / presentation of IRS-2 phosphopeptides by HLA A*0301
Text: as §1

binding to HLA A*0201 (HLA A*0201)	binding to HLA A*0301 (HLA A*0301)	Substance	recognition of the phosphopeptide on control cell line by phosphopeptide-specific CTL (murine IFNγ) [1]	recognition of the phosphopeptide on cancer cell lines by phosphopeptide-specific CTL (murine IFNγ) [1]	presentation by the A*0301 molecule (HLA A*0301)
–	–	GLLGpSPVRA (GLLG[pS]PVRA) [phosphopeptide with phosphoserine residue recognized by CTL lines 6850 and 6960]	not the control cell line	recognize the phosphopeptide on all the cancer cell lines	–
Neither of the A*0301 peptides bind	bind	RVApSPTSGVK (RVA[pS]PTSGVK)	–	–	–
Neither of the A*0301 peptides bind	bind	RVApSPTSGVKR (RVA[pS]PTSGVKR)	–	–	–

Substance	binding to HLA A*0201 (HLA A*0201)	binding to HLA A*0301 (HLA A*0301)	recognition of the phosphopeptide on control cell line by phosphopeptide-specific CTL (murine IFNγ) [1]	recognition of the phosphopeptide on cancer cell lines by phosphopeptide-specific CTL (murine IFNγ) [1]	presentation by the A*0301 molecule (HLA A*0301)
RVApSPTSGV (RVA[pS]PTSGV)	binds	–	not the control cell line	recognize the phosphopeptide on all the cancer cell lines	cannot be presented
